Experimental data taken from patent US20110257371A1 (Teva, published 2011).
Where no end group is shown, it is not given here. The star is where a group is joined. Biotin = O=C1N[C@H]2[C@H](CS[C@H]2CCCCC(=O)*)N1

T1: V32A
T1 sequence (peptide, N-terminal biotin (p-0192)): NNFVPTNAGSKAF

T2: K35A
T2 sequence (peptide, N-terminal biotin (p-0192)): NNFVPTNVGSAAF

T3: S34A
T3 sequence (peptide, N-terminal biotin (p-0192)): NNFVPTNVGAKAF

T4: F37A (ends and bridges not checked)
T4 peptide: Biotin-NNFVPTNVGSKAA

T5: G33A (ends and bridges not checked)
T5 peptide: Biotin-NNFVPTNVASKAF

T6: human α-CGRP (human, not fully specified; C-terminal amide (CONH2) as printed; N-biotinylated in the Biacore assays)
T6 construct: Full-length 37-residue peptide; also called α-Hu; α-human
T6 peptide: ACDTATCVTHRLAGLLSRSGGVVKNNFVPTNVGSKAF

T7: rat α-CGRP (rat, not fully specified; C-terminal amide (CONH2) as printed; N-biotinylated in the Biacore assays)
T7 construct: also called α-Rat; α-rat
T7 peptide: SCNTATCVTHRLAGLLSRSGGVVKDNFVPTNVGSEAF

T8: human β-CGRP (human, not fully specified; C-terminal amide (CONH2) as printed; N-biotin on chip)
T8 construct: also called β-human
T8 peptide: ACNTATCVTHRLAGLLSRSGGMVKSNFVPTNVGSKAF

T9: rat β-CGRP (rat, not fully specified; C-terminal amide (CONH2) as printed; N-biotin on chip)
T9 construct: also called β-rat
T9 peptide: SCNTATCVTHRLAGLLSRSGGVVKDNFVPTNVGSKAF


Legend:
V32A = biological target: T1, V32A; assay: Biacore alanine scan, 25 °C, N-biotinylated fragment on SA chip, G1 Fab titrated; against the wild-type 25-37 fragment
K35A = biological target: T2, K35A; assay: as above
S34A = biological target: T3, S34A; assay: as above
F37A = biological target: T4, F37A; assay: as above
Method: (§1) Interaction analysis was conducted at 25° C. on a Biacore 3000™ system equipped with streptavidin-coated (SA) sensor chips (Biacore AB, Uppsala, Sweden) using a standard Biacore running buffer (HBS-P). […] Each amino acid between position 27-37 was then mutated individually to alanine and expressed the fold loss in affinity compared to the wild-type fragment. […] Fab fragments were titrated over the chip using 1 μM as the top concentration of a two-fold dilution series. Association and dissociation phases were monitored at 100 μl/min for 1 minute and 5 minutes respectively. Surfaces were regenerated with a mixture of 35% ethanol+25mM NaOH+0.5M NaCl.

G33A = biological target: T5, G33A; assay: as above
Method: as §1

human α-CGRP [1] = biological target: T6, human α-CGRP; assay: Biacore, N-biotin-CGRP on chip, 25 C
rat α-CGRP [2] = biological target: T7, rat α-CGRP; assay: Biacore, N-biotin-CGRP on chip, 25 C
human β-CGRP = biological target: T8, human β-CGRP; assay: Biacore, N-biotin-CGRP on chip, 37 C
human α-CGRP [3] = biological target: T6, human α-CGRP; assay: Biacore, N-biotin-CGRP on chip, 37 C
rat β-CGRP = biological target: T9, rat β-CGRP; assay: Biacore, N-biotin-CGRP on chip, 37 C
rat α-CGRP [4] = biological target: T7, rat α-CGRP; assay: Biacore, N-biotin-CGRP on chip, 37 C
human α-CGRP [5] = biological target: T6, human α-CGRP; assay: Biacore, ratio of KD at 25 C, reference rat α-CGRP

Binder	Fold loss in affinity (V32A)	Fold loss in affinity (K35A)	Fold loss in affinity (S34A)	Fold loss in affinity (F37A)	Fold loss in affinity (G33A)	T1/2 (human α-CGRP [1])	T1/2 (rat α-CGRP [2])	T1/2 (human β-CGRP)	T1/2 (human α-CGRP [3])	T1/2 (rat β-CGRP)	T1/2 (rat α-CGRP [4])	fold more potent than for rat α-CGRP (human α-CGRP [5])
Fab fragment of antibody G1 (Fab, V domains shown, also called Purified Fab fragments of antibody G1) VH: EVQLVESGGGLVQPGGSLRLSCAASGFTFSNYWISWVRQAPGKGLEWVAEIRSESDASATHYAEAVKGRFTISRDNAKNSLYLQMNSLRAEDTAVYYCLAYFDYGLAIQNYWGQGTLVTVSS VL: EIVLTQSPATLSLSPGERATLSCKASKRVTTYVSWYQQKPGQAPRLLIYGASNRYLGIPARFSGSGSGTDFTLTISSLEPEDFAVYYCSQSYNYPYTFGQGTKLEIK	6.1 fold	8.1 fold	10.9 fold	339 fold	504 fold							
antibody G1 (antibody, human IgG2, kappa, V domains shown, Humanized IgG2 delta-a monoclonal derived from muMAb7E9; heavy chain entry includes the modified IgG2 constant region; also called anti-CGRP antibody G1) VH: EVQLVESGGGLVQPGGSLRLSCAASGFTFSNYWISWVRQAPGKGLEWVAEIRSESDASATHYAEAVKGRFTISRDNAKNSLYLQMNSLRAEDTAVYYCLAYFDYGLAIQNYWGQGTLVTVSS VL: EIVLTQSPATLSLSPGERATLSCKASKRVTTYVSWYQQKPGQAPRLLIYGASNRYLGIPARFSGSGSGTDFTLTISSLEPEDFAVYYCSQSYNYPYTFGQGTKLEIKR						24.7 h	3.12 h	2.76 h	5.3 h	2.45 h	0.48 h	40 fold
